{
  "source": "patent US20260001928A1",
  "about": "(CORTERIA PHARMACEUTICALS, priority 2022, published 2026)",
  "target": "human corticotropin-releasing factor 2a (CRF2a receptor) (human), Q13324",
  "sequence (Q13324 20-411)": "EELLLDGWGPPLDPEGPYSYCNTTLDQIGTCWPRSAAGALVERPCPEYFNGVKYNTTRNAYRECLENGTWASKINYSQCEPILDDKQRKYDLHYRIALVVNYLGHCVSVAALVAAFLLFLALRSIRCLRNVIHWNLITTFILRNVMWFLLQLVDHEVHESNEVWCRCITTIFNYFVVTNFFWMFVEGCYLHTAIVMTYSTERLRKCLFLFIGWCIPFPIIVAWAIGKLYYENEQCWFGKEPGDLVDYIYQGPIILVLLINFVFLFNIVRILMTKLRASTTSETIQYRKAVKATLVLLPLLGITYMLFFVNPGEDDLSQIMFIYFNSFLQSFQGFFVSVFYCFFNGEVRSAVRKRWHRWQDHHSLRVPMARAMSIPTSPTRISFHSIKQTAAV",
  "test": "cell-based or functional assay",
  "note": "*1 amine or outer side, *2 acyl side, *3 side chain or, on linkers, in order; H or OH if unused. Side-chain parts run from the residue outwards. [ ]: non-standard residue; d: D form. The star is where a group is joined. C20 diacid = O=C(O)CCCCCCCCCCCCCCCCCCC(=O)*; C16 diacid = O=C(O)CCCCCCCCCCCCCCC(=O)*; γGlu = O=C(O)[C@H](CCC(=O)[*:2])N[*:1]; Aib = CC(C)(N)C(=O)O",
  "data": [
    {"binder": "Ac-IVLSLD[dV]PIKLK([γGlu-γGlu-C20 diacid])KILLEQEKQKAQREQAETN[Aib]QILAQV-NH2 (SMILES CC[C@H](C)[C@H](NC(C)=O)C(=O)N[C@H](C(=O)N[C@@H](CC(C)C)C(=O)N[C@@H](CO)C(=O)N[C@@H](CC(C)C)C(=O)N[C@@H](CC(=O)O)C(=O)N[C@@H](C(=O)N1CCC[C@H]1C(=O)N[C@H](C(=O)N[C@@H](CCCCN)C(=O)N[C@@H](CC(C)C)C(=O)N[C@@H](CCCCNC(=O)CC[C@H](NC(=O)CC[C@H](NC(=O)CCCCCCCCCCCCCCCCCCC(=O)O)C(=O)O)C(=O)O)C(=O)N[C@@H](CCCCN)C(=O)N[C@H](C(=O)N[C@@H](CC(C)C)C(=O)N[C@@H](CC(C)C)C(=O)N[C@@H](CCC(=O)O)C(=O)N[C@@H](CCC(N)=O)C(=O)N[C@@H](CCC(=O)O)C(=O)N[C@@H](CCCCN)C(=O)N[C@@H](CCC(N)=O)C(=O)N[C@@H](CCCCN)C(=O)N[C@@H](C)C(=O)N[C@@H](CCC(N)=O)C(=O)N[C@@H](CCCNC(=N)N)C(=O)N[C@@H](CCC(=O)O)C(=O)N[C@@H](CCC(N)=O)C(=O)N[C@@H](C)C(=O)N[C@@H](CCC(=O)O)C(=O)N[C@H](C(=O)N[C@@H](CC(N)=O)C(=O)NC(C)(C)C(=O)N[C@@H](CCC(N)=O)C(=O)N[C@H](C(=O)N[C@@H](CC(C)C)C(=O)N[C@@H](C)C(=O)N[C@@H](CCC(N)=O)C(=O)N[C@H](C(N)=O)C(C)C)[C@@H](C)CC)[C@@H](C)O)[C@@H](C)CC)[C@@H](C)CC)C(C)C)C(C)C)", "note": "[SEQ ID NO 244]", "values": [
      {"measurement": "EC50 [nM] (cAMP)", "value": 0.28, "unit": "nM"}
    ]},
    {"binder": "H-VLSLD[dV]PIKLK([γGlu-C16 diacid])KILLEQEKQKKQREQAETNKQILAQV-NH2 (SMILES CC[C@H](C)[C@H](NC(=O)[C@H](CCC(N)=O)NC(=O)[C@H](CCCCN)NC(=O)[C@H](CC(N)=O)NC(=O)[C@@H](NC(=O)[C@H](CCC(=O)O)NC(=O)[C@H](C)NC(=O)[C@H](CCC(N)=O)NC(=O)[C@H](CCC(=O)O)NC(=O)[C@H](CCCNC(=N)N)NC(=O)[C@H](CCC(N)=O)NC(=O)[C@H](CCCCN)NC(=O)[C@H](CCCCN)NC(=O)[C@H](CCC(N)=O)NC(=O)[C@H](CCCCN)NC(=O)[C@H](CCC(=O)O)NC(=O)[C@H](CCC(N)=O)NC(=O)[C@H](CCC(=O)O)NC(=O)[C@H](CC(C)C)NC(=O)[C@H](CC(C)C)NC(=O)[C@@H](NC(=O)[C@H](CCCCN)NC(=O)[C@H](CCCCNC(=O)CC[C@H](NC(=O)CCCCCCCCCCCCCCC(=O)O)C(=O)O)NC(=O)[C@H](CC(C)C)NC(=O)[C@H](CCCCN)NC(=O)[C@@H](NC(=O)[C@@H]1CCCN1C(=O)[C@H](NC(=O)[C@H](CC(=O)O)NC(=O)[C@H](CC(C)C)NC(=O)[C@H](CO)NC(=O)[C@H](CC(C)C)NC(=O)[C@@H](N)C(C)C)C(C)C)[C@@H](C)CC)[C@@H](C)CC)[C@@H](C)O)C(=O)N[C@@H](CC(C)C)C(=O)N[C@@H](C)C(=O)N[C@@H](CCC(N)=O)C(=O)N[C@H](C(N)=O)C(C)C)", "note": "[SEQ ID NO 34]", "values": [
      {"measurement": "EC50 [nM] (cAMP)", "value": 1.61, "unit": "nM"}
    ]}
  ]
}
